Measurements as given in US20210380675A1 (Kyowa Kirin, published 2021).
Numbering of substitutions follows the chain as printed.

T1: human IL-36α (R&D Systems cat#6995-IL-010/CF) (human, UniProt Q9UHA7 6-158)
T1 sequence (looked up): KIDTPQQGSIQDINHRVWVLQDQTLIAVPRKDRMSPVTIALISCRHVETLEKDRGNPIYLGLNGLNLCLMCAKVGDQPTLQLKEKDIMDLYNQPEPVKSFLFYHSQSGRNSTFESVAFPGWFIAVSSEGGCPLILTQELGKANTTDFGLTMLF

T2: cynomolgus IL-36α, truncated (cynomolgus macaque (Macaca fascicularis), UniProt Q9UHA7 14-158 (human entry), limits assumed)
T2 construct: Untagged after removal of the His-SUMO tag; also called cynomolgus IL-36 alpha; cyIL-36alpha
T2 chain: T1 sequence (looked up) with I2S, D3E, T4M, Q7P, G8V, T24I, M34V, A40S, V74A

T3: cynomolgus IL-36γ, truncated (cynomolgus macaque (Macaca fascicularis), UniProt Q9NZH8 18-167 (human entry), limits assumed)
T3 construct: Untagged after removal of the His-SUMO tag; also called cynomolgus IL-36 gamma; cyIL-36gamma
T3 chain: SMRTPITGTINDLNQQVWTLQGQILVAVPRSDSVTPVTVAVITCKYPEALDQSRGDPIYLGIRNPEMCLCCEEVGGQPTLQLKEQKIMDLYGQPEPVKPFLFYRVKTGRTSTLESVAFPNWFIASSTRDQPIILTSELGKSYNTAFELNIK

T4: human IL-36α(R12), truncated (human, UniProt Q9UHA7 6-158)
T4 construct: Untagged after removal of the His-SUMO tag; also called hIL-36alpha
T4 chain: T1 sequence (looked up) with Q7R

T5: IL-36 receptor (heterodimer of IL-36R and IL-1RAcP) on human cells (human, UniProt Q9HB29 20-575; Q9NPH3 21-570)
T5 sequence (looked up) 1: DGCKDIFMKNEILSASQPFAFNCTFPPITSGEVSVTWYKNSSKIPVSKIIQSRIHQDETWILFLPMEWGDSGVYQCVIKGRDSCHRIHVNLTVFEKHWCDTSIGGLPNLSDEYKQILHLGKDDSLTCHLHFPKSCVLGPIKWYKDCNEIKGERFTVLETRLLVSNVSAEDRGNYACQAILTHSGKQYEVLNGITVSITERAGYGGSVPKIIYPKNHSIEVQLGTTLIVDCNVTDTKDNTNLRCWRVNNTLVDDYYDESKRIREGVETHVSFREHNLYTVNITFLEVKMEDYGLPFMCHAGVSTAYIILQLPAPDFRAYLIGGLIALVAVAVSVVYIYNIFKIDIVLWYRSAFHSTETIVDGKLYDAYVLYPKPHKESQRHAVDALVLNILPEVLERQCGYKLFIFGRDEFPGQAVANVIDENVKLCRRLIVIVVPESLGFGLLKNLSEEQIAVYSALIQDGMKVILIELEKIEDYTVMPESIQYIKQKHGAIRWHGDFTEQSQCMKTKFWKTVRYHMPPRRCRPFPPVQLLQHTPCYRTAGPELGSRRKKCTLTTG
T5 sequence (looked up) 2: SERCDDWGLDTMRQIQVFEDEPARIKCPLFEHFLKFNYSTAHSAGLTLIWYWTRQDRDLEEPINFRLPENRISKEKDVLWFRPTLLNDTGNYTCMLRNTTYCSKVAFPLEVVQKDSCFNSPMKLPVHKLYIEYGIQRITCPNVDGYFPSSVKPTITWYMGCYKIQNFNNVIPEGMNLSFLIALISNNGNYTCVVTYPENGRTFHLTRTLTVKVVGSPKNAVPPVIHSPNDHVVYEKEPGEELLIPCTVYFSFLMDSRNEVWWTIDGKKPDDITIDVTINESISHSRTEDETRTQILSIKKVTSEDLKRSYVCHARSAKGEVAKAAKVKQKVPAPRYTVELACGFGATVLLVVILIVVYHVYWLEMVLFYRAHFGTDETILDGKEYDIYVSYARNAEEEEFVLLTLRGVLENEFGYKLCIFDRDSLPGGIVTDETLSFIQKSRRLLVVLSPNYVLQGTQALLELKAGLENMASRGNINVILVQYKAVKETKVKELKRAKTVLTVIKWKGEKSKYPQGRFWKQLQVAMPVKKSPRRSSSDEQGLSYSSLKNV

B1: 144D464A LV9are HV10b (antibody, V domains shown)
VH: QVQLVQSGAEVKKPGASVKVSCKASGFNIKDTYIHWVRQAPGQGLEWIGRIDPAIGTTRYDPKFQGRATITTDTSTSTVYLEFSSLRSEDTAVYYCARLHYFGNNFFFDYWGQGTLVTVSS
VL: QAVVTQEPSLTVSPGGTVTLTCRSSSGAVTTSNYANWVQEKPGQLFAGLIGGTNDRAPGVPARFSGSLLGGKAALTLSGAQPEDEADYFCALWFSNHWVFGGGTKLTVL
notes: Humanized
B2: 144D464A LV7a HV10b (antibody, V domains shown)
VH: B1 VH
VL: B1 VL with E40Q, L45A, L77I
notes: Humanized; also called humanized 144D464A antibody LV7a HV10b
B3: human IL-36γ, truncated (ligand)
chain: SMCKPITGTINDLNQQVWTLQGQNLVAVPRSDSVTPVTVAVITCKYPEALEQGRGDPIYLGIQNPEMCLYCEKVGEQPTLQLKEQKIMDLYGQPEPVKPFLFYRAKTGRTSTLESVAFPDWFIASSKRDQPIILTSELGKSYNTAFELNIND
B4: 144D464A (antibody, V domains shown)
VH: EVQLQQSGAELVKPGASVRLSCTASGFNIKDTYIHWVKQRPEQGLEWIGRIDPAIGTTRYDPKFQGKATITTDTSSDTVHLQFSSLTSEDTAVYYCARLHYFGNNFFFDYWGQGTTLTVSS
VL: QAVVTQESALTTSPGEAVTLTCRSSSGAVTTSNYANWVQEKPDHLFAGLIGGTNDRAPGVPARFSGSLIGDKAALTITGAQTEDEAIYFCALWFSNHWVFGGGTKLTVL
notes: Mouse monoclonal from hybridoma; mouse IgG heavy and lambda light chain; also called mouse antibody 144D464A
B5: 144L472A (antibody, V domains shown)
VH: EVQLQQSGAELVKPGASVKLSCTVSGFNIKDTYMYWVKQRPEQGLEWIGRIDPANGYAKYDPKFQGKATLTADTSSNTAYLQLSSLTSEDTAVYFCARFHWYDSAFYFDFWGQGTTLTVSS
VL: B4 VL with A17T, A47T, D55N, A91G, F94Y
notes: Mouse monoclonal from hybridoma; mouse IgG heavy and lambda light chain

Tests used:
[1] = target: T1, human IL-36α (R&D Systems …); assay: cell-based or functional assay
human IL-36γ, truncated [2] = target: B3; assay: cell-based or functional assay
[3] = target: T2, cynomolgus IL-36α, truncated; assay: SPR, Biacore, 1:1 Langmuir fit
Protocol: (§1) The humanized antibodies obtained in Example 6 were tested for their binding to recombinant human or cynomolgus macaque IL36a and IL-36γ in Biacore assays. The association time was set to 60 seconds, and the final dissociation time was set to 600 seconds. Equilibrium dissociation constant KD (kd/ka) of exemplary antibodies was determined using a 1:1 Langmuir fit model (see Tables 17-18 below).

human IL-36γ, truncated [4] = target: B3; assay: SPR, Biacore, 1:1 Langmuir fit
Protocol: as §1

[5] = target: T3, cynomolgus IL-36γ, truncated; assay: SPR, Biacore, 1:1 Langmuir fit
Protocol: as §1

[6] = target: T4, human IL-36α(R12), truncated; assay: SPR, Biacore, 1:1 Langmuir fit
Protocol: as §1

[7] = target: T2, cynomolgus IL-36α, truncated; assay: SPR, Biacore, 1:1 Langmuir fit; heads of c3 and c4 printed swapped
Protocol: as §1

human IL-36γ, truncated [8] = target: B3; assay: as above
Protocol: as §1

[9] = target: T3, cynomolgus IL-36γ, truncated; assay: as above
Protocol: as §1

[10] = target: T4, human IL-36α(R12), truncated; assay: as above
Protocol: as §1

[11] = target: T5, IL-36 receptor (heterodimer of IL-36R …); assay: cell-based or functional assay
human IL-36γ, truncated [12] = target: B3; assay: cell-based or functional assay; remark: listed apart in the source
human IL-36γ, truncated [13] = target: B3; assay: SPR, Biacore T200, antibody on chip, IL-36 as analyte, 1:1 Langmuir fit
Method in brief: (§2)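 Single-cycle kinetics: mouse/human chimeric or mouse antibodies captured (~200 RU) via anti-human or anti-mouse Fc on CM5, then increasing IL-36 concentrations injected, 300 s association, 1200 s dissociation. Alternatively ~2000 RU antibody amine-coupled, analyte 30 μL/min for 420 s, 3600 s dissociation, 25° C; double-referenced sensorgrams.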

[14] = target: T4, human IL-36α(R12), truncated; assay: as above
Method in brief: as §2

[15] = target: T2, cynomolgus IL-36α, truncated; assay: cell-based or functional assay
[16] = target: T4, human IL-36α(R12), truncated; assay: cell-based or functional assay
human IL-36γ, truncated [17] = target: B3; assay: cell-based or functional assay; remark: listed apart in the source
[18] = target: T4, human IL-36α(R12), truncated; assay: cell-based or functional assay
human IL-36γ, truncated [19] = target: B3; assay: cell-based or functional assay; remark: listed apart in the source
human IL-36γ, truncated [20] = target: B3; assay: cell-based or functional assay; remark: listed apart in the source
[21] = target: T3, cynomolgus IL-36γ, truncated; assay: cell-based or functional assay
[22] = target: T4, human IL-36α(R12), truncated; assay: ELISA binding screen and HaCaT assay

IC50 of IL-8 secretion (AlphaLISA), HaCaT, 10 nM human IL-36α [1] [nM] | IC50 of IL-8 secretion (AlphaLISA), HaCaT, 10 nM human IL-36γ (human IL-36γ, truncated [2]) [nM] | Kd [3] [nM] | Kd (human IL-36γ, truncated [4]) [nM] | Kd [5] [nM] | Kd [6] [nM] | koff [7] [s⁻¹] | kon [7] [M⁻¹ s⁻¹] | koff (human IL-36γ, truncated [8]) [s⁻¹] | kon (human IL-36γ, truncated [8]) [M⁻¹ s⁻¹] | koff [9] [s⁻¹] | kon [9] [M⁻¹ s⁻¹] | koff [10] [s⁻¹] | kon [10] [M⁻¹ s⁻¹] | IC50 of IL-8 secretion, primary human monocytes, 6 nM human IL-36γ, FIG. 5C (human IL-36γ, truncated [12]) [nM] | Kd (human IL-36γ, truncated [13]) [nM] | koff (human IL-36γ, truncated [13]) [s⁻¹] | kon (human IL-36γ, truncated [13]) [M⁻¹ s⁻¹] | Binder | other results
4.51 | 12.5 | 1.19 | 1.3 | 1.13 | 2.1 | 0.000422 | 354000 | 0.000436 | 336000 | 0.000493 | 434000 | 0.000445 | 212000 | – | – | – | – | B1 | –
3.9 | 7.83 | 1.25 | 1.31 | 1.18 | 2.09 | 0.000451 | 362000 | 0.000451 | 343000 | 0.000523 | 443000 | 0.000456 | 219000 | – | – | – | – | B2 | –
– | – | – | – | – | – | – | – | – | – | – | – | – | – | – | – | – | – | B3 | EC50 (read off the curve) [11]: ~1 nM
– | – | 0.727 | 0.877 | 0.865 | 1.32 | 0.000338 | 465000 | 0.00034 | 388000 | 0.000427 | 493000 | 0.000362 | 274000 | 13.2 | 3.81 | 0.00032 | 84000 | B4 | Kd [14]: 2.53 nM; koff [14]: 0.000309 s⁻¹; kon [14]: 122000 M⁻¹ s⁻¹; IC50 of IL-8 secretion, HaCaT, 10 nM cynomolgus IL-36α, FIG. 2A [15]: 5.3 nM; IC50 of IL-8 secretion, HaCaT, 10 nM human IL-36α, FIG. 1B [16]: 6.49 nM; IC50 of IL-8 secretion, primary human keratinocytes, 8.4 nM human IL-36γ, FIG. 4D (human IL-36γ, truncated [17]): 13.3 nM; IC50 of IL-8 secretion, primary human keratinocytes, 8 nM human IL-36α, FIG. 4B [18]: 13.4 nM; IC50 (read off the curve) (human IL-36γ, truncated [19]): ~8 nM; IC50 of IL-8 secretion, HaCaT, 10 nM human IL-36γ, FIG. 1E (human IL-36γ, truncated [20]): 7.39 nM; IC50 of IL-8 secretion, HaCaT, 10 nM cynomolgus IL-36γ, FIG. 2C [21]: 15.6 nM
– | – | – | – | – | – | – | – | – | – | – | – | – | – | 15.7 | 1000 | 0.00208 | 2070 | B5 | IC50 of IL-8 secretion, primary human monocytes, 50 nM human IL-36γ, FIG. 5D (human IL-36γ, truncated [12]): 40 nM; binding result [22]: binds; IC50 of IL-8 secretion, HaCaT, 10 nM cynomolgus IL-36α, FIG. 2B [15]: 63.2 nM; IC50 of IL-8 secretion, HaCaT, 10 nM human IL-36γ, FIG. 1F (human IL-36γ, truncated [20]): 11.9 nM; IC50 of IL-8 secretion, HaCaT, 10 nM cynomolgus IL-36γ, FIG. 2D [21]: 17.1 nM
